The assay addresses Ubiquitin (Ub). Kind of assay: biotin-streptavidin pull-down and mass spectrometry. The following applies: N2A cells, triplicate experiments, S0: 1.5, FDR: 0.01, read off a plot.

With “bioGFP-tagged OPTN wild-type (from UniProt Q96CV9) E478G”, the other: Welch's t-test difference (logarithmized ratio of relative protein intensities, WT vs mutant) came to 4.1.

The record behind these values is paper PMC4947123.
